Results on nine substances are retold here after paper PMC5758712.

Some results are limits rather than exact numbers.

The target of assay [1] is UbcH5B (Homo sapiens) (UniProt P62837). The following applies: cited from earlier work.
Assay [2] addresses UbcH5A-Ub (UniProt P51668). Put plainly: ITC; E2 or E2~Ub in the cell at 25–30 μM, RBR in the syringe at 250–300 μM; 293 K; 25 mM Hepes pH 7.5, 150 mM NaCl, 0.5 mM TCEP; 1:1 binding model.
Assay [3] concerns the target UbcH7 (UniProt P68036). Described as above.
Assay [4] concerns the target UbcH7-Ub (UniProt P68036). Described as above.

Sequence of HOIP-Ring1 (Q96EP0 whole entry, the tested form may be a part): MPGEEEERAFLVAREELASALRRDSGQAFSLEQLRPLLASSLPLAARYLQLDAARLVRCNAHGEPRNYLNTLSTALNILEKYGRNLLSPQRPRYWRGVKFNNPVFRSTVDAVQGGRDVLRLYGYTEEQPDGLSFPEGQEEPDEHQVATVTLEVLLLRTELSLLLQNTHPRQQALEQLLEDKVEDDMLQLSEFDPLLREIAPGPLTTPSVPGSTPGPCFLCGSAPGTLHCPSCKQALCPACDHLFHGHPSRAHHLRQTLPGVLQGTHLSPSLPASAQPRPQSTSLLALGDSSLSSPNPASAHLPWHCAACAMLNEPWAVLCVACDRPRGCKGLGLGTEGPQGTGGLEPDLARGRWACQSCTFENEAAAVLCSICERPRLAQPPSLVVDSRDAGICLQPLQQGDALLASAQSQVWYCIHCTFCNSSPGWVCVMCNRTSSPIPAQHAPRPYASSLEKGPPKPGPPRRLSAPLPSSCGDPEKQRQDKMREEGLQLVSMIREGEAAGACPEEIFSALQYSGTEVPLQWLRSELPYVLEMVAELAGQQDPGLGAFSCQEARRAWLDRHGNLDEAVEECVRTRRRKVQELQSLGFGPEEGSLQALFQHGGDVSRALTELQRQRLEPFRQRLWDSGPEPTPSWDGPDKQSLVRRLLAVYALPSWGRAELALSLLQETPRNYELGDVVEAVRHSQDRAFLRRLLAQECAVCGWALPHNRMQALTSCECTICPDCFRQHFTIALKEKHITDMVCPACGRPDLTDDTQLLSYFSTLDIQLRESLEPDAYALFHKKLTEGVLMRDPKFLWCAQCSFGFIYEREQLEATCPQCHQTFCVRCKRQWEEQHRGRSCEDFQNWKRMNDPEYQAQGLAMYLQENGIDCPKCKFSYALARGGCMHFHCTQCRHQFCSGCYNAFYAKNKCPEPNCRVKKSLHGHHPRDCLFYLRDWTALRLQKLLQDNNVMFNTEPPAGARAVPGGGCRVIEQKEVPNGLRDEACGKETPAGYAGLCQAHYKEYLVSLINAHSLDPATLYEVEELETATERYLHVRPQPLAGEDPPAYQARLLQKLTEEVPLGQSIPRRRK
Sequence of HOIP-RBR (Q96EP0 whole entry, the tested form may be a part): as above
Sequence of RNF144A-Ring1 (P50876 whole entry, the tested form may be a part): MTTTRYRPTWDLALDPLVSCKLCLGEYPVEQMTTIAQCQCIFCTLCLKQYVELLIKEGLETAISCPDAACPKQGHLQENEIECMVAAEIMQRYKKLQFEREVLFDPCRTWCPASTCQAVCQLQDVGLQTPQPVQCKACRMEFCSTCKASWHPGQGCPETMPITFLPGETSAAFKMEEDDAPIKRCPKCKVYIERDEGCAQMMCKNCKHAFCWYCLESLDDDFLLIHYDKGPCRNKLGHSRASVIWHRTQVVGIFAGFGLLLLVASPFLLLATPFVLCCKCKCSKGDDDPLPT
Sequence of RNF144A-RBR (P50876 1-250): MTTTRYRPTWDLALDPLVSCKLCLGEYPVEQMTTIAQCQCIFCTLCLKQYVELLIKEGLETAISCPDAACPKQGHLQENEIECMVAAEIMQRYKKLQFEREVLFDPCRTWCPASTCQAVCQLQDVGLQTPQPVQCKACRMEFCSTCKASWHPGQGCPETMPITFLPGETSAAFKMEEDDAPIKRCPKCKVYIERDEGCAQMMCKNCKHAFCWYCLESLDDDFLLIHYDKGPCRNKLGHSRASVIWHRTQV
Sequence of HHARI-Ring1 (Q9Y4X5 whole entry, the tested form may be a part): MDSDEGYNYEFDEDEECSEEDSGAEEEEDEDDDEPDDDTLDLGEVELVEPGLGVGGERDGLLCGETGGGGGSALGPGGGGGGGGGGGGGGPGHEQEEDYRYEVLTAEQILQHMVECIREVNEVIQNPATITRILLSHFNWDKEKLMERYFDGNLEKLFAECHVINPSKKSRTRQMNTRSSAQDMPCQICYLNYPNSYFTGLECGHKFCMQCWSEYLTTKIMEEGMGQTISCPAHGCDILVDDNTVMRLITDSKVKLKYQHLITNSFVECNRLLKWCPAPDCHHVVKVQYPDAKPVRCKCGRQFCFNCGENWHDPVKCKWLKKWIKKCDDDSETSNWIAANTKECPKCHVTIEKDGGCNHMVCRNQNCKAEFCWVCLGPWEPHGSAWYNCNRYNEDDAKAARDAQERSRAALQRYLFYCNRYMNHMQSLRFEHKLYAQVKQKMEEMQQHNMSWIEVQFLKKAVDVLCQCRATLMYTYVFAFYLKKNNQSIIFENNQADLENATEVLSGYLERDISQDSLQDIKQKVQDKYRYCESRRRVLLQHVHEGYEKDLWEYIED
Sequence of HHARI-RBR (Q9Y4X5 whole entry, the tested form may be a part): as above
Sequence of UbcH5B (Homo sapiens) (P62837 whole entry): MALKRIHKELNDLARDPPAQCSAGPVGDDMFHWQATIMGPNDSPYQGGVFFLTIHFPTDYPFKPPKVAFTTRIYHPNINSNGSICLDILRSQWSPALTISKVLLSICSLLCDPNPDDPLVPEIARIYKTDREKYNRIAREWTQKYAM
Sequence of HHARI (Q9Y4X5 whole entry): as the sequence (Q9Y4X5 whole entry, the tested form may be a part) above

Take HHARI (from UniProt Q9Y4X5): the equilibrium dissociation constant (Kd) in assay [1] was 20000 nM.

In assay [2], “HHARI-RBR (from UniProt Q9Y4X5 1-557) (domain or fragment)” came in with a Kd of 4500 nM, a dH of -3.7 kcal/mol and a stoichiometry N of 0.8. For the same substance, in assay [3], the Kd amounted to 410 nM, the dH was 1.8 kcal/mol and the stoichiometry N came out at 0.9. Besides, in assay [4], the dissociation constant Kd amounted to 200 nM, the dH is -2.3 kcal/mol and the stoichiometry N stood at 0.9.

In the case of “HHARI-Ring1 (from UniProt Q9Y4X5 1-557) (domain or fragment)”, the equilibrium dissociation constant (Kd) in assay [2] is above 50000 nM. In addition, in assay [3], the dissociation constant Kd was determined as 210 nM, the dH came to 4.2 kcal/mol and the stoichiometry N was 0.8. In assay [4], this substance returned a Kd of 120 nM, a dH of 3.9 kcal/mol and a stoichiometry N of 0.8.

In assay [2], “HOIP-RBR (from UniProt Q96EP0 1-1072) (domain or fragment)” yielded a Kd of 4300 nM, a dH of -8.2 kcal/mol and a stoichiometry N of 0.9. Further, in assay [3], the equilibrium dissociation constant (Kd) was determined as 2300 nM, the dH came to 0.8 kcal/mol and the stoichiometry N worked out at 0.8. In assay [4], this substance registered a Kd of 900 nM, a dH of 0.8 kcal/mol and a stoichiometry N of 0.9.

Consider “HOIP-Ring1 (from UniProt Q96EP0 1-1072) (domain or fragment)”, for which the dissociation constant (Kd) in assay [2] is above 50000 nM. In assay [3], the dH stood at 1.4 kcal/mol and the stoichiometry N was found to be 1. In assay [4], this substance displayed a Kd of 4300 nM, a dH of 1.1 kcal/mol and a stoichiometry N of 0.9.

In assay [3], “RNF144A-RBR (from UniProt P50876 1-250) (domain or fragment)” had an equilibrium dissociation constant (Kd) of 1000 nM, a dH of 1.7 kcal/mol and a stoichiometry N of 0.9. In assay [4], this substance displayed a dissociation constant Kd of 520 nM, a dH of -0.9 kcal/mol and a stoichiometry N of 0.8.

In assay [2], “RNF144A-Ring1 (from UniProt P50876 1-292) (domain or fragment)” showed a Kd above 50000 nM. Besides, in assay [3], the dissociation constant (Kd) stood at 2200 nM, the dH is 3.5 kcal/mol and the stoichiometry N was 0.8. In assay [4], this substance came in with a Kd of 1000 nM, a dH of 2.7 kcal/mol and a stoichiometry N of 0.8.

Turning to “TRIAD3A-RBR (from UniProt Q9NWF9-2 510-801) (domain or fragment)”, in assay [4], the Kd came out at 2400 nM, the dH is 3.7 kcal/mol and the stoichiometry N was 0.9.

Turning to “TRIAD3A-Ring1 (from UniProt Q9NWF9-2 1-866) (domain or fragment)”, the dissociation constant Kd in assay [2] is above 50000 nM. In assay [3], this substance showed a dissociation constant (Kd) of 3200 nM, a dH of 4.5 kcal/mol and a stoichiometry N of 0.8. In assay [4], this substance had a dissociation constant Kd of 4300 nM, a dH of 3.6 kcal/mol and a stoichiometry N of 0.8.

As a reminder, the Kd is the constant that tells how readily two partners part at equilibrium. A word on the stoichiometry N: it is a count of units in the complex or per binding partner.
